Source: patent publication US20260241035A1, “FUNCTIONAL NUCLEIC ACID MOLECULE AND METHOD” (THE UNIVERSITY COURT OF THE UNIVERSITY OF EDINBURGH, priority 2022, published 2026)

Assays:
SOX2 = biological target: T1, SOX2 (Homo sapiens, UniProt P48431); assay: Biotinylated enhancer pull down from nuclear extract, western blot and mass spectrometry; format: binding; details: for SOX2 enrichment (mass spectrometry): normalised to random sequence 599
T1 construct: endogenous in cells; host or cells: nuclear extract of GSC7 and GSC328 (patient-derived glioblastoma stem cell lines)
T1 sequence (P48431 whole entry): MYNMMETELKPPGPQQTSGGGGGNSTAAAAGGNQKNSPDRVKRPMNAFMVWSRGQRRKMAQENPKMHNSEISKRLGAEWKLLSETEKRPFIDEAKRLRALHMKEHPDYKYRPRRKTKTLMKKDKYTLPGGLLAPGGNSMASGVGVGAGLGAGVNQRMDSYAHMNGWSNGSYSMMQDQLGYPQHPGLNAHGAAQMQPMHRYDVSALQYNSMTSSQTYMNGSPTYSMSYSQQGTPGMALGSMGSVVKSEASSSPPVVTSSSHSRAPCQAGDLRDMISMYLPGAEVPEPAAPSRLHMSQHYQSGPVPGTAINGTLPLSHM
Procedure: The oligo was PCR-amplified using biotinylated primers. The PCR product was then SPRI purified to remove biotinylated primer dimers. These dsDNA fragments were incubated with nuclear extract from GSC7 and GSC328. They were then bound to streptavidin magnetic beads, washed three times and the frozen beads were sent for mass spectrometry analysis.
All the buffers were prepared the day before, passed through a […] filter (except the dialysis buffer) and left at 4° C. overnight. DTT and protease inhibitors were added just before use. The cells were scraped on the media and collected on 50 ml falcons, which were spun at 1350 rcf 5 minutes at 4° C. The pellet was resuspended in 50 ml of ice cold PBS, an aliquot was taken for cell counting, and spun again spun at 1350 rcf 5 minutes at 4° C. The pellet was then resuspended in 5 ml per 40 million cells of ice cold buffer A (10 mM HEPES pH 7.9, 1.5 mM MgCl2, 10 mM KCl, 0.5 mM DTT, protease inhibitors (Complete, Roche, 11697498001)) and incubated on ice for 10 min. The cell suspension was transferred to a glass Dounce homogenizer and dounced 40 times on ice. The cell suspension was transferred to a falcon and centrifuged at 1350 rcf for 10 min at 4° C. The supernatant was discarded (cytosolic extract) and the pellet resuspended in 100 μl per 10 million cells in ice cold buffer B (20 mM HEPES pH 7.9, 5% glycerol, 1 M NaCl, 1.5 mM MgCl2, 0.2 mM EDTA pH 8.0, 0.5 mM DTT, protease inhibitors (Complete, Roche, 11697498001)). The suspension was rotated for 30 minutes at 4° C. and transferred into a dialysis membrane (SnakeSkin, Thermo Scientific, Cat 68100). Dialysis was carried out in 500 ml of dialysis buffer (20 mM HEPES pH 7.9, 5% glycerol, 100 mM KCl, 0.83 mM EDTA pH 8.0, 1.66 mM DTT, protease inhibitors (Complete, Roche, 11697498001)) for two hours at 4° C. with rotation. Dialysis buffer was changed (500 ml) and the dialysis was continued overnight at 4° C. […] The supernatant was collected into new 1.5 ml tubes and quantified (Pierce BCA Protein Assay Kit, Thermo Scientific, Cat 23225). […]

SOX9 = biological target: T2, SOX9 (Homo sapiens, UniProt P48436); assay: Biotinylated enhancer pull down from nuclear extract, SOX9 detection; format: binding; details: random DNA 599 as negative control
T2 construct: These dsDNA fragments were incubated with nuclear extract from GSC7 and GSC328; endogenous in cells; host or cells: nuclear extract of GSC7 and/or GSC328 (patient-derived glioblastoma stem cell lines)
T2 sequence (P48436 1-509): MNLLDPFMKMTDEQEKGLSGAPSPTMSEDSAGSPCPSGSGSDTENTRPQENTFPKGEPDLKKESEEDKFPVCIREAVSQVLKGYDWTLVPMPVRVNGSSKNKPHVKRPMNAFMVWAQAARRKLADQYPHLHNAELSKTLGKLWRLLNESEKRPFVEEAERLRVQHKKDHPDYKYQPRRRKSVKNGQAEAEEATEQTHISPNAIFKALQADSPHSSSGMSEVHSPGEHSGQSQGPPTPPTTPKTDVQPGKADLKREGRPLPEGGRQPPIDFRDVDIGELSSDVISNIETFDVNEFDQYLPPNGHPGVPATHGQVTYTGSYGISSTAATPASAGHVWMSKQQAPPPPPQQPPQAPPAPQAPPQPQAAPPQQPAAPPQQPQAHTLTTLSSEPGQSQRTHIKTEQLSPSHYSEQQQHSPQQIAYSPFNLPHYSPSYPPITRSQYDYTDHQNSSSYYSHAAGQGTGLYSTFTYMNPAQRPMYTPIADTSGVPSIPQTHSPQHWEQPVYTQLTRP
Procedure: All the buffers were prepared the day before, passed through a 22 μm filter (except the dialysis buffer) and left at 4° C. overnight. DTT and protease inhibitors were added just before use. […] The cell suspension was transferred to a glass Dounce homogenizer and dounced 40 times on ice. […] Dialysis buffer was changed (500 ml) and the dialysis was continued overnight at 4° C. The extract was collected in an 1.5 ml tube and spun at maximum speed for 15 min at 4° C. […] 100 μg aliquots were flash frozen in liquid nitrogen and stored at −80° C.
Enhancers were amplified with 5′ biotinylated primers (Table 5) using PrimeStar Max (Takara) according to the manufacturer's instructions.
Streptavidin Magnetic Bead (NEB, S1420S) were used according to the manufacturer's instructions. […]
Next, we aimed to confirm that indeed SOX2 and SOX9 are binding to the enhancer and the SOX dimer motif. […] To filter for transcription factors a list of all transcription factors was obtained from UniProt and overlapped with the detected proteins in both cell lines.

B1: ID1101: enhancer fragment, SEQ ID NO: 4 (nucleic acid)
DNA: GTGAGTGTGACTCACATGCTGGCATCAGAGCCCCTCTTAGAGCTTAGAACACTGGGCCTCTGTCAGGCAAAGAAAAGGAGTCCCTATGAATAGCCATCTCCACAAATAGCAGTTACTGTCACTTCTTAAAAGACACAAGCATGGCTGGAGACCGGCACTG
In the case of B1, the “SOX2 enrichment (mass spectrometry)” value (SOX2; G7 nuclear extract) is reported as 4.4 fold, the SOX2 pull down (SOX2; GSC7 and GSC328) is reported as “pulled down specifically” and the “SOX2 enrichment (mass spectrometry)” value (SOX2; GSC328 nuclear extract) is reported as 23 fold. For the same molecule, the SOX9 interaction (SOX9) was “selectively interacts”.
